Measured values: publication PMC3415457, “Cohesin Rings Devoid of Scc3 and Pds5 Maintain Their Stable Association with the DNA” (PLoS Genetics, 2012)

T1: Scc3, recombinant, His6-tagged (S. cerevisiae (budding yeast), UniProt P40541 1-1150)
T1 construct: also called His6-tagged Scc3; source: E. coli BL21 (DE3) RIL, purified (Ni-NTA, gel filtration); not shown: His6, C-terminal, kept
T1 sequence (looked up): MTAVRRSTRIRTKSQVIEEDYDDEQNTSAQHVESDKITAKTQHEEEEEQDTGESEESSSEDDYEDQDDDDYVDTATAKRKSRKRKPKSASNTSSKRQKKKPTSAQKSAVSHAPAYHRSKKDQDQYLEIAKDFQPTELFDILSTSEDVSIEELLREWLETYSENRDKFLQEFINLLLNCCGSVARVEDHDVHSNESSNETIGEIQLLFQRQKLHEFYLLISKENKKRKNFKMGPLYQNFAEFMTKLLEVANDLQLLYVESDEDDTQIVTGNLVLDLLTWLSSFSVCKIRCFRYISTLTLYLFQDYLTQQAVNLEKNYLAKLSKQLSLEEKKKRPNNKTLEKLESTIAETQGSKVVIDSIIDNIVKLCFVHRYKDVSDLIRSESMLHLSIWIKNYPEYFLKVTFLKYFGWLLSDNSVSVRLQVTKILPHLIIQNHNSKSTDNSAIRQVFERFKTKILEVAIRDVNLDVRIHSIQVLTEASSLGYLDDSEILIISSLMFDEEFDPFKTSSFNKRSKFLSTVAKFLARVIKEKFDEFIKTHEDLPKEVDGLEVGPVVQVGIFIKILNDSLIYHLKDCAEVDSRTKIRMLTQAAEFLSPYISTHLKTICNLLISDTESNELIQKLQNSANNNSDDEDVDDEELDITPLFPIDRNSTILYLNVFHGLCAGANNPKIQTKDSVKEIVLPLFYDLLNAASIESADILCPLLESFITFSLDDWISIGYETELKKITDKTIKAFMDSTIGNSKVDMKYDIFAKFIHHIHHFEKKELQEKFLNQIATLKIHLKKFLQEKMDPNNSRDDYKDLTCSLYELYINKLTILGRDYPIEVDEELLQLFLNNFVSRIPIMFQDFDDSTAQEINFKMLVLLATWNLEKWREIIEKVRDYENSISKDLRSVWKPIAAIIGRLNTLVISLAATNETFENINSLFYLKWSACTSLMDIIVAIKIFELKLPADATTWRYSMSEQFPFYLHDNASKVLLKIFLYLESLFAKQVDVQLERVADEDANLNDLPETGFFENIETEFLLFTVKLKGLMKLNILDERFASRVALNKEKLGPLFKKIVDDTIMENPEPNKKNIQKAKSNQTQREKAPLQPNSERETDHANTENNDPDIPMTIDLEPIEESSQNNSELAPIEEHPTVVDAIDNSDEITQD

T2: GST fused to the N-terminal region (aa 1–168) of Scc1 (Saccharomyces cerevisiae (strain ATCC …, UniProt Q12158))
T2 chain: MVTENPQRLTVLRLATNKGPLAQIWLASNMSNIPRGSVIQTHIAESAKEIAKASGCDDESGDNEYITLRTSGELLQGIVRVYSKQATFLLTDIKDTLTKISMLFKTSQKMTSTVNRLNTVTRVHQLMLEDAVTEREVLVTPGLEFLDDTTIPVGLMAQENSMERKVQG

T3: GST fused to the C-terminal region (aa 338–566) of Scc1 (Saccharomyces cerevisiae (strain ATCC …, UniProt Q12158))
T3 chain: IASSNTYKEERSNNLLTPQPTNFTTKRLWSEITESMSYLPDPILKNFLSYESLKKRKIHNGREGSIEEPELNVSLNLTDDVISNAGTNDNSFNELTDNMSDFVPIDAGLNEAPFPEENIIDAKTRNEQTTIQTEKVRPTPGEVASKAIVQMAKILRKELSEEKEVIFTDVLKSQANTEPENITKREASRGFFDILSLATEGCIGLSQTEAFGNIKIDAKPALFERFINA

T4: Pds5, recombinant, His6-tagged (S. cerevisiae (budding yeast), UniProt Q04264 1-1277)
T4 construct: also called His6-tagged Pds5; source: E. coli BL21 (DE3) RIL, purified (Ni-NTA, gel filtration); not shown: His6, C-terminal, kept
T4 sequence (looked up): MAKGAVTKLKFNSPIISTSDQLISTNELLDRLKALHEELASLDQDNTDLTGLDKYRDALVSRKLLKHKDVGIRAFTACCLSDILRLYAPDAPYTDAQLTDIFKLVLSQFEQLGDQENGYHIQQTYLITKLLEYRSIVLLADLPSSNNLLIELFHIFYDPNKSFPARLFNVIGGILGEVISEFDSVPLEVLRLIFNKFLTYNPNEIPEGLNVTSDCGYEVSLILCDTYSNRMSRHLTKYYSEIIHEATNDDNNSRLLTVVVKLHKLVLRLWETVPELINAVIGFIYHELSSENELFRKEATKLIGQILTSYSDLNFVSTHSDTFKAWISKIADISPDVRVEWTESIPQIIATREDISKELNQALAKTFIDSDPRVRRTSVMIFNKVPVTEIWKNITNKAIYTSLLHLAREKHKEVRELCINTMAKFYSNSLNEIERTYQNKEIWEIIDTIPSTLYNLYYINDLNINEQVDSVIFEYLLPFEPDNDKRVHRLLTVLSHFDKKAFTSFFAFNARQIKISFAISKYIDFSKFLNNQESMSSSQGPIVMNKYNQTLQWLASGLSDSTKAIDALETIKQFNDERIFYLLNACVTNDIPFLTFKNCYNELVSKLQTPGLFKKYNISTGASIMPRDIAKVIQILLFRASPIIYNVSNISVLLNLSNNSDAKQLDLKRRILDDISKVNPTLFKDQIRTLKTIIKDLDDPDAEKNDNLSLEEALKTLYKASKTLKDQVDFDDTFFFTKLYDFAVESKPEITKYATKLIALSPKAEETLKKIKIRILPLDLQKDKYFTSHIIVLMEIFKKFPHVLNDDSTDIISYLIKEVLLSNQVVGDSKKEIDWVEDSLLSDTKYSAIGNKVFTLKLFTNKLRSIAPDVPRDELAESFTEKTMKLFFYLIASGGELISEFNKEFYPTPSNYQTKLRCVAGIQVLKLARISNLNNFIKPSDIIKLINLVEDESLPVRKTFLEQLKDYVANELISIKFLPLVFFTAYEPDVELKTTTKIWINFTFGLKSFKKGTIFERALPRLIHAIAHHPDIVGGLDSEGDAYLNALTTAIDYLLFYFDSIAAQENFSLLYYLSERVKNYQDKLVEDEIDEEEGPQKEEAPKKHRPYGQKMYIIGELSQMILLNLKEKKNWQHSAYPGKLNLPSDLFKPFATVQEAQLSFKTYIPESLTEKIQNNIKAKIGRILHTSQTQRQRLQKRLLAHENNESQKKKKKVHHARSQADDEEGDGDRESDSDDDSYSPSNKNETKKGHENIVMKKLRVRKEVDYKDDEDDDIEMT

B1: Wpl1, recombinant, His6-tagged (natural protein, S. cerevisiae (budding yeast), UniProt Q99359 1-647, looked up)
chain: MRAYGKRGPVLRTPFRSNKGLPSSSDVEFSDDDVNSVIPDVSSTISSSIADHPIEGLLDEPRKAQDSSSSFDGANEKPSSQLDSKRNDQNVKIITSSDTSMAFMKDEKLSAFNFLDGSKASKRKRRRTYQKHDANITSSIEPDVQDEDSITMHNEFESIRKIYNDINEFILKLPRADDDILNKMLENEMKMDDSIENNSIRTSKDKKYGKFRTILINKNKENEIMGEEVDQKANTLSLNNADNSNAEKEGLTSTNHYNELKNMGDTIKYQDDIEFLLSNSKSNDNTTVPINEYFKKLLNLSLMIINDEEFFQYAKRYFKKEIIKLSFAQFRSDFPELILLQGYLLHKVSESQSDFPPSFDNFSIELSKDDGKIRTKKNKHIKKLSHLNFEDFLRKTQFKTGLYYSLSLWEMHGNLSLDIIKRISILASNKDLFSRHVKTFIPLLEKLITASEFCHMYIEQPEMFDSLISNLNNQFKDMLDDDSLIKILILLTNMEVHNYTLWKEADMIFQSSMNTILESIHPLTDAKVDNILLHLGLCLNICSRENSRLKLDGKLWYDMKTIFVKMIRDGSDTENRLVQGLFYLNFSFLIKQRKENSNLDPGELNLLLVELEAFKSETSQFNEGISNKIEIALNYLKSIYTSERITI
notes: also called Rad61; His6-tagged Wpl1; source: E. coli BL21 (DE3) RIL, purified (Ni-NTA, gel filtration); not shown: His6, C-terminal, kept

What was measured:
[1] = target: T1, Scc3, recombinant, His6-tagged; test: pull-down; GST fusions of Scc1 regions on glutathione-agarose beads; His6-tagged Wpl1, Scc3 and Pds5 mixed together and pre-incubated 30 min at 4°C, then with beads 2 h at 4°C; 20 mM HEPES pH 7.5, 100 mM NaCl, 5% glycerol, 5 mM 2-mercaptoethanol; washes with 0.5% NP-40; Western blot with Penta-His antibody; details: both partners purified
[2] = target: B1; test: as above; details: both partners purified
[3] = target: T2, GST fused to the N-terminal region (aa …); test: GST pull-down; Pds5 present: Wpl1 bound as Pds5/Wpl1 complex (Wpl1, Scc3 and Pds5 premixed); direct Wpl1-Scc1 binding alone not reported in text
[4] = target: T3, GST fused to the C-terminal region (aa …); test: GST pull-down; Scc3 present: Wpl1 bound as Scc3/Wpl1 complex (Wpl1, Scc3 and Pds5 premixed); direct Wpl1-Scc1 binding alone not reported in text
[5] = target: T4, Pds5, recombinant, His6-tagged; test: co-sedimentation; 10–30% glycerol gradient; 10 mM HEPES-KOH pH 7.5, 75 mM NaCl, 0.25 mM EDTA; proteins mixed and preincubated 1 h at 4°C; 38000 rpm, 38 h, 4°C, SW40 Ti; fractions on Coomassie-stained SDS-PAGE; details: both partners purified
[6] = target: T4, Pds5, recombinant, His6-tagged; test: pull-down; GST fusions of Scc1 regions on glutathione-agarose beads; His6-tagged Wpl1, Scc3 and Pds5 mixed together and pre-incubated 30 min at 4°C, then with beads 2 h at 4°C; 20 mM HEPES pH 7.5, 100 mM NaCl, 5% glycerol, 5 mM 2-mercaptoethanol; washes with 0.5% NP-40; Western blot with Penta-His antibody; details: both partners purified

| Binder | binding result [1] | binding result [2] | binding result [3] | binding result [4] | binding result [5] | binding result [6] |
| --- | --- | --- | --- | --- | --- | --- |
| GST fused to the C-terminal region (aa 338–566) of Scc1 (domain or fragment, S. cerevisiae (budding yeast), UniProt Q12158 338-566, looked up, Scc1 of budding yeast, C-terminal region, aa 338–566; The methods' sentence on C-terminal His6 tags follows the list of constructs; whether it also holds for the GST fusions is not clear; also called C-terminal part of Scc1; Scc1 C-terminus) IASSNTYKEERSNNLLTPQPTNFTTKRLWSEITESMSYLPDPILKNFLSYESLKKRKIHNGREGSIEEPELNVSLNLTDDVISNAGTNDNSFNELTDNMSDFVPIDAGLNEAPFPEENIIDAKTRNEQTTIQTEKVRPTPGEVASKAIVQMAKILRKELSEEKEVIFTDVLKSQANTEPENITKREASRGFFDILSLATEGCIGLSQTEAFGNIKIDAKPALFERFINA | binds | binds | – | – | – | – |
| B1 | – | – | binds | binds | binds | – |
| GST fused to the N-terminal region (aa 1–168) of Scc1 (domain or fragment, S. cerevisiae (budding yeast), UniProt Q12158 1-168, looked up, Scc1 of budding yeast, N-terminal region, aa 1–168; The methods' sentence on C-terminal His6 tags follows the list of constructs; whether it also holds for the GST fusions is not clear; also called N-terminal region of Scc1; Scc1 N-terminus) MVTENPQRLTVLRLATNKGPLAQIWLASNMSNIPRGSVIQTHIAESAKEIAKASGCDDESGDNEYITLRTSGELLQGIVRVYSKQATFLLTDIKDTLTKISMLFKTSQKMTSTVNRLNTVTRVHQLMLEDAVTEREVLVTPGLEFLDDTTIPVGLMAQENSMERKVQG | – | binds | – | – | – | binds |
